Results reported in the supplement of paper PMC11246515.
± gives the standard deviation of the averaged measurements.

Test: total protein half-life in vivo (active degradation + dilution); higher = more stable protein
[1] = E. coli NCM3722 delta-clpP delta-lon delta-hslV, growth: N-lim chemostat, doubling time 6 h
[2] = E. coli NCM3722 delta-clpP, growth: N-lim chemostat, doubling time 6 h
[3] = E. coli NCM3722 delta-hslV, growth: N-lim chemostat, doubling time 6 h
[4] = E. coli NCM3722 delta-lon, growth: N-lim chemostat, doubling time 6 h
[5] = E. coli NCM3722 delta-smpB, growth: N-lim chemostat, doubling time 6 h
[6] = wild type E. coli NCM3722, growth: C-lim chemostat, doubling time 3 h
[7] = wild type E. coli NCM3722, growth: C-lim chemostat, doubling time 6 h
[8] = wild type E. coli NCM3722, growth: C-lim chemostat, doubling time 12 h
[9] = wild type E. coli NCM3722, growth: N-lim chemostat, doubling time 6 h
[10] = wild type E. coli NCM3722, growth: N-lim chemostat, doubling time 12 h
[11] = wild type E. coli NCM3722, growth: P-lim chemostat, doubling time 6 h
[12] = wild type E. coli NCM3722, growth: P-lim chemostat, doubling time 12 h

Row | Sequence | total protein half-life in vivo [1] [h] | total protein half-life in vivo [2] [h] | total protein half-life in vivo [3] [h] | total protein half-life in vivo [4] [h] | total protein half-life in vivo [5] [h] | total protein half-life in vivo [6] [h] | total protein half-life in vivo [7] [h] | total protein half-life in vivo [8] [h] | total protein half-life in vivo [9] [h] | total protein half-life in vivo [10] [h] | total protein half-life in vivo [11] [h] | total protein half-life in vivo [12] [h]
1 | MALWGGRFTQAADQRFKQFNDSLRFDYRLAEQDIVGSVAWSKALVTVGVLTAEEQAQLEEALNVLLEDVRARPQQILESDAEDIHSWVEGKLIDKVGQLGKKLHTGRSRNDQVATDLKLWCKDTVSELLTANRQLQSALVETAQNNQDAVMPGYTHLQRAQPVTFAHWCLAYVEMLARDESRLQDALKRLDVSPLGCGALAGTAYEIDREQLAGWLGFASATRNSLDSVSDRDHVLELLSAAAIGMVHLSRFAEDLIFFNTGEAGFVELSDRVTSGSSLMPQKKNPDALELIRGKCGRVQGALTGMMMTLKGLPLAYNKDMQEDKEGLFDALDTWLDCLHMAALVLDGIQVKRPRCQEAAQQGYANATELADYLVAKGVPFREAHHIVGEAVVEAIRQGKPLEDLPLSELQKFSQVIDEDVYPILSLQSCLDKRAAKGGVSPQQVAQAIAFAQARLG | 4.96 ± 1 | 4 ± 0.055 | 3.462 ± 0.011 | 4.05 ± 0.2 | 3.65 ± 0.28 | 3.02 ± 0.055 | 5.59 ± 0.33 | 10.5 ± 0.22 | 3.77 ± 0.17 | 5.76 ± 0.05 | 5.29 ± 0.76 | 11 ± 0.68
2 | MAMFGFPHWQLKSTSTESGVVAPDERLPFAQTAVMGVQHAVAMFGATVLMPILMGLDPNLSILMSGIGTLLFFFITGGRVPSYLGSSAAFVGVVIAATGFNGQGINPNISIALGGIIACGLVYTVIGLVVMKIGTRWIERLMPPVVTGAVVMAIGLNLAPIAVKSVSASAFDSWMAVMTVLCIGLVAVFTRGMIQRLLILVGLIVACLLYGVMTNVLGLGKAVDFTLVSHAAWFGLPHFSTPAFNGQAMMLIAPVAVILVAENLGHLKAVAGMTGRNMDPYMGRAFVGDGLATMLSGSVGGSGVTTYAENIGVMAVTKVYSTLVFVAAAVIAMLLGFSPKFGALIHTIPAAVIGGASIVVFGLIAVAGARIWVQNRVDLSQNGNLIMVAVTLVLGAGDFALTLGGFTLGGIGTATFGAILLNALLSRKLVDVPPPEVVHQEP | – | 4.84 ± 1.8 | 3.33 ± 1.9 | > 8 | 3.66 ± 0.6 | – | – | – | 3.82 | 5.58 ± 0.86 | – | –
3 | MAMPLSLLIGLRFSRGRRRGGMVSLISVISTIGIALGVAVLIVGLSAMNGFERELNNRILAVVPHGEIEAVDQPWTNWQEALDHVQKVPGIAAAAPYINFTGLVESGANLRAIQVKGVNPQQEQRLSALPSFVQGDAWRNFKAGEQQIIIGKGVADALKVKQGDWVSIMIPNSNPEHKLMQPKRVRLHVAGILQLSGQLDHSFAMIPLADAQQYLDMGSSVSGIALKMTDVFNANKLVRDAGEVTNSYVYIKSWIGTYGYMYRDIQMIRAIMYLAMVLVIGVACFNIVSTLVMAVKDKSGDIAVLRTLGAKDGLIRAIFVWYGLLAGLFGSLCGVIIGVVVSLQLTPIIEWIEKLIGHQFLSSDIYFIDFLPSELHWLDVFYVLVTALLLSLLASWYPARRASNIDPARVLSGQ | 5.8 ± 0.74 | 6.23 ± 0.16 | 5.66 ± 0.51 | 5.4 ± 0.27 | 5.77 ± 0.5 | 3.32 ± 0.27 | 5.759 ± 0.033 | – | 5.94 ± 0.43 | 13.9 ± 2.2 | 6.023 ± 0.042 | 12.2 ± 0.26
4 | MANFFIDRPIFAWVLAILLCLTGTLAIFSLPVEQYPDLAPPNVRVTANYPGASAQTLENTVTQVIEQNMTGLDNLMYMSSQSSGTGQASVTLSFKAGTDPDEAVQQVQNQLQSAMRKLPQAVQNQGVTVRKTGDTNILTIAFVSTDGSMDKQDIADYVASNIQDPLSRVNGVGDIDAYGSQYSMRIWLDPAKLNSFQMTAKDVTDAIESQNAQIAVGQLGGTPSVDKQALNATINAQSLLQTPEQFRDITLRVNQDGSEVRLGDVATVEMGAEKYDYLSRFNGKPASGLGVKLASGANEMATAELVLNRLDELAQYFPHGLEYKVAYETTSFVKASIEDVVKTLLEAIALVFLVMYLFLQNFRATLIPTIAVPVVLMGTFSVLYAFGYSVNTLTMFAMVLAIGLLVDDAIVVVENVERIMSEEGLTPREATRKSMGQIQGALVGIAMVLSAVFVPMAFFGGTTGAIYRQFSITIVAAMVLSVLVAMILTPALCATLLKPLKKGEHHGQKGFFAWFNQMFNRNAERYEKGVAKILHRSLRWIVIYVLLLGGMVFLFLRLPTSFLPLEDRGMFTTSVQLPSGSTQQQTLKVVEQIEKYYFTHEKDNIMSVFATVGSGPGGNGQNVARMFIRLKDWSERDSKTGTSFAIIERATKAFNQIKEARVIASSPPAISGLGSSAGFDMELQDHAGAGHDALMAARNQLLALAAENPELTRVRHNGLDDSPQLQIDIDQRKAQALGVAIDDINDTLQTAWGSSYVNDFMDRGRVKKVYVQAAAPYRMLPDDINLWYVRNKDGGMVPFSAFATSRWETGSPRLERYNGYSAVEIVGEAAPGVSTGTAMDIMESLVKQLPNGFGLEWTAMSYQERLSGAQAPALYAISLLVVFLCLAALYESWSVPFSVMLVVPLGVIGALLATWMRGLENDVYFQVGLLTVIGLSAKNAILIVEFANEMNQKGHDLFEATLHACRQRLRPILMTSLAFIFGVLPMATSTGAGSGGQHAVGTGVMGGMISATILAIYFVPLFFVLVRRRFPLKPRPE | – | 6.56 ± 0.62 | 6.24 ± 0.45 | 6.05 ± 0.57 | 5.38 ± 0.37 | – | – | 12 ± 2.9 | 6.06 ± 0.82 | 12.3 ± 0.86 | 6.36 ± 0.17 | –
